Data as given in patent US11278600B2, “Human alpha-galactosidase variants” (Codexis, Inc., priority 2014, dated 2022).
Substitutions are numbered along the chain they refer to.

B1: 460 (protein)
chain: LDNGLARTPTMGWLHWERFMCNLDCQEEPDSCISEKLFMEMAERMVSEGWKDAGYEYLCIDDCWMAPQRDSEGRLQADPQRFPHGIRQLANYVHSKGLKLGIYADVGNKTCAGFPGSFGYYDIDAQTFADWGVDLLKFDGCYCDSLENLADGYKHMSLALNRTGRSIVYSCEWPLYMWPFQKPNYTEIRQYCNHWRNFADIDDSWKSIKSILDWTSRNQERIVDVAGPGGWNDPDMLVIGNFGLSWDQQVTQMALWAIMAAPLFMSNDLRHISPQAKALLQDKDVIAINQDPLGKQGYQLRKGDNFEVWERPLSGDAWAVAIINRQEIGGPRSYTIPVASLGKGVACNPACFITQLLPVKRQLGFYNWTSRLKSHINPTGTVLLQTENTMQMSLKDLL
modifications: Synthetic Polypeptide sequence of Variant No. 460 of mature Human GLA
B2: 466 (protein)
chain: B1 chain with T386L, M392E
modifications: Synthetic Polypeptide sequence of Variant No. 466 of mature Human GLA
B3: 473 (protein)
chain: B1 chain with T386L, M392L
modifications: Synthetic Polypeptide sequence of Variant No. 473 of mature Human GLA
B4: 368 (protein)
chain: B1 chain with R44A, T386L
modifications: Synthetic Polypeptide sequence of Variant No. 368 of mature Human GLA
B5: 465 (protein)
chain: B1 chain with T386L, M390Q
modifications: Synthetic Polypeptide sequence of Variant No. 465 of mature Human GLA
B6: 472 (protein)
chain: B1 chain with T386L, M392K
modifications: Synthetic Polypeptide sequence of Variant No. 472 of mature Human GLA
B7: 469 (protein)
chain: B1 chain with Q385I, T386L
modifications: Synthetic Polypeptide sequence of Variant No. 469 of mature Human GLA
B8: 463 (protein)
chain: B1 chain with T386L, M390T
modifications: Synthetic Polypeptide sequence of Variant No. 463 of mature Human GLA
B9: 470 (protein)
chain: B1 chain with T386L, M392R
modifications: Synthetic Polypeptide sequence of Variant No. 470 of mature Human GLA
B10: 462 (protein)
chain: B1 chain with Q385L, T386L
modifications: Synthetic Polypeptide sequence of Variant No. 462 of mature Human GLA
B11: 461 (protein)
chain: B1 chain with T386L, M392Q
modifications: Synthetic Polypeptide sequence of Variant No. 461 of mature Human GLA
B12: 468 (protein)
chain: B1 chain with T386L, T389Q
modifications: Synthetic Polypeptide sequence of Variant No. 468 of mature Human GLA
B13: 467 (protein)
chain: B1 chain with T386L, T389S
modifications: Synthetic Polypeptide sequence of Variant No. 467 of mature Human GLA
B14: 471 (protein)
chain: B1 chain with T386L, T389W
modifications: Synthetic Polypeptide sequence of Variant No. 471 of mature Human GLA
B15: 474 (protein)
chain: B1 chain with T386F
modifications: Synthetic Polypeptide sequence of Variant No. 474 of mature Human GLA

Assay: HTP-analysis of yeast culture supernatants, no challenge (MUGal hydrolysis)
Type: biochemical
Details: activity of the variant/activity of Rd4BB (SEQ ID NO: 15)
How it was run: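 GLA variants were expressed in INVSc1 yeast grown in SD-Ura broth with glucose at 30° C., and culture supernatants were collected after 66-84 h. Supernatant was mixed with McIlvaine buffer pH 4.8 and MUGal (2 mM stock) in 50 mM citrate, 200 mM KCl, pH 4.6, incubated at 37° C. for 30-180 minutes, then quenched with sodium carbonate.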

| Molecule | Relative Activity of GLA Variants After No Challenge (NC) |
| --- | --- |
| B1 | + (0.5 to 1.5 relative activity over Rd4BB (SEQ ID NO: 15)) |
| B2 | + (0.5 to 1.5 relative activity over Rd4BB (SEQ ID NO: 15)) |
| B3 | + (0.5 to 1.5 relative activity over Rd4BB (SEQ ID NO: 15)) |
| B4 | + (0.5 to 1.5 relative activity over Rd4BB (SEQ ID NO: 15)) |
| B5 | + (0.5 to 1.5 relative activity over Rd4BB (SEQ ID NO: 15)) |
| B6 | + (0.5 to 1.5 relative activity over Rd4BB (SEQ ID NO: 15)) |
| B7 | + (0.5 to 1.5 relative activity over Rd4BB (SEQ ID NO: 15)) |
| B8 | + (0.5 to 1.5 relative activity over Rd4BB (SEQ ID NO: 15)) |
| B9 | + (0.5 to 1.5 relative activity over Rd4BB (SEQ ID NO: 15)) |
| B10 | + (0.5 to 1.5 relative activity over Rd4BB (SEQ ID NO: 15)) |
| B11 | + (0.5 to 1.5 relative activity over Rd4BB (SEQ ID NO: 15)) |
| B12 | + (0.5 to 1.5 relative activity over Rd4BB (SEQ ID NO: 15)) |
| B13 | + (0.5 to 1.5 relative activity over Rd4BB (SEQ ID NO: 15)) |
| B14 | + (0.5 to 1.5 relative activity over Rd4BB (SEQ ID NO: 15)) |
| B15 | + (0.5 to 1.5 relative activity over Rd4BB (SEQ ID NO: 15)) |

Assay: HTP-analysis of supernatants pretreated with acid (MUGal hydrolysis)
Type: biochemical
Details: activity of the variant/activity of Rd4BB (SEQ ID NO: 15); challenge at pH 3.7
How it was run: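 Supernatants from INVSc1 yeast secreting GLA variants were challenged at 37° C. for 1-3 h in McIlvaine buffer at pH 3.3-4.3. Residual activity was then measured on 4 mM MUGal substrate stock at pH 4.8 with citrate buffer pH 4.3, over 30-180 min at 37° C. Reactions were quenched with sodium carbonate and read by fluorescence (Ex 355/Em 448 nm).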

| Molecule | Relative Activity of GLA Variants After Challenge at pH 3.7 |
| --- | --- |
| B1 | + (0.5 to 1.5 relative activity over Rd4BB (SEQ ID NO: 15)) |
| B2 | + (0.5 to 1.5 relative activity over Rd4BB (SEQ ID NO: 15)) |
| B3 | + (0.5 to 1.5 relative activity over Rd4BB (SEQ ID NO: 15)) |
| B4 | + (0.5 to 1.5 relative activity over Rd4BB (SEQ ID NO: 15)) |
| B5 | + (0.5 to 1.5 relative activity over Rd4BB (SEQ ID NO: 15)) |
| B6 | + (0.5 to 1.5 relative activity over Rd4BB (SEQ ID NO: 15)) |
| B7 | + (0.5 to 1.5 relative activity over Rd4BB (SEQ ID NO: 15)) |
| B8 | + (0.5 to 1.5 relative activity over Rd4BB (SEQ ID NO: 15)) |
| B9 | ++ (>1.5 to 2.5 relative activity over Rd4BB (SEQ ID NO: 15)) |
| B10 | + (0.5 to 1.5 relative activity over Rd4BB (SEQ ID NO: 15)) |
| B11 | + (0.5 to 1.5 relative activity over Rd4BB (SEQ ID NO: 15)) |
| B12 | + (0.5 to 1.5 relative activity over Rd4BB (SEQ ID NO: 15)) |
| B13 | + (0.5 to 1.5 relative activity over Rd4BB (SEQ ID NO: 15)) |
| B14 | + (0.5 to 1.5 relative activity over Rd4BB (SEQ ID NO: 15)) |
| B15 | ++ (>1.5 to 2.5 relative activity over Rd4BB (SEQ ID NO: 15)) |

Assay: HTP-analysis of supernatants pretreated with base (MUGal hydrolysis)
Type: biochemical
Details: activity of the variant/activity of Rd4BB (SEQ ID NO: 15); challenge at pH 9.65
How it was run: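 Fluorescence of released 4-MU (Ex 355 nm, Em 448 nm) after carbonate quench reports MUGal hydrolysis by GLA variants secreted from INVSc1 yeast. Before the acidic (pH 4.3-4.8) 30-180 min reaction at 37° C, supernatants had been pre-incubated at pH 7.0-9.7 for 1-18 h at 37° C.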

| Molecule | Relative Activity of GLA Variants After Challenge at pH 9.65 |
| --- | --- |
| B1 | + (0.5 to 1.5 relative activity over Rd4BB (SEQ ID NO: 15)) |
| B2 | + (0.5 to 1.5 relative activity over Rd4BB (SEQ ID NO: 15)) |
| B3 | + (0.5 to 1.5 relative activity over Rd4BB (SEQ ID NO: 15)) |
| B4 | + (0.5 to 1.5 relative activity over Rd4BB (SEQ ID NO: 15)) |
| B5 | + (0.5 to 1.5 relative activity over Rd4BB (SEQ ID NO: 15)) |
| B6 | + (0.5 to 1.5 relative activity over Rd4BB (SEQ ID NO: 15)) |
| B7 | + (0.5 to 1.5 relative activity over Rd4BB (SEQ ID NO: 15)) |
| B8 | + (0.5 to 1.5 relative activity over Rd4BB (SEQ ID NO: 15)) |
| B9 | + (0.5 to 1.5 relative activity over Rd4BB (SEQ ID NO: 15)) |
| B10 | + (0.5 to 1.5 relative activity over Rd4BB (SEQ ID NO: 15)) |
| B11 | + (0.5 to 1.5 relative activity over Rd4BB (SEQ ID NO: 15)) |
| B12 | + (0.5 to 1.5 relative activity over Rd4BB (SEQ ID NO: 15)) |
| B13 | + (0.5 to 1.5 relative activity over Rd4BB (SEQ ID NO: 15)) |
| B14 | + (0.5 to 1.5 relative activity over Rd4BB (SEQ ID NO: 15)) |
| B15 | + (0.5 to 1.5 relative activity over Rd4BB (SEQ ID NO: 15)) |
